Measured values as given in patent publication US20140087995A1 (published 2014).
Numbered stars: 1 amine (or outer) side, 2 acyl side, 3 side chain; on linkers, the order of the positions; unused ones are H or OH. Bridge positions count the residues as written; N and C are the ends. Side chains are listed from the residue outwards. Ends that are not written are not given here. * marks the point of attachment. C20 diacid = O=C(O)CCCCCCCCCCCCCCCCCCC(=O)*; γGlu = O=C(O)[C@H](CCC(=O)[*:2])N[*:1]; AEEA = NCCOCCOCC(=O)O

B1: N^ε1-[2-[2-[2-[[(4S)-4-carboxy-4-(19-carboxynonadecanoylamino)butanoyl]amino]ethoxy]ethoxy]acetyl]-[His14,Arg17,Pro21,Pro27,Pro34]-h-amylin (peptide)
peptide: K([AEEA-γGlu-C20 diacid])CNTATCATQRLAHFLRHSSPNFGAIPSSTNVGPNTY-NH2
modifications: disulfide 2-7; N-terminus assumed
SMILES: CC[C@H](C)[C@H](NC(=O)[C@H](C)NC(=O)CNC(=O)[C@H](Cc1ccccc1)NC(=O)[C@H](CC(N)=O)NC(=O)[C@@H]1CCCN1C(=O)[C@H](CO)NC(=O)[C@H](CO)NC(=O)[C@H](Cc1c[nH]cn1)NC(=O)[C@H](CCCNC(=N)N)NC(=O)[C@H](CC(C)C)NC(=O)[C@H](Cc1ccccc1)NC(=O)[C@H](Cc1c[nH]cn1)NC(=O)[C@H](C)NC(=O)[C@H](CC(C)C)NC(=O)[C@H](CCCNC(=N)N)NC(=O)[C@H](CCC(N)=O)NC(=O)[C@@H](NC(=O)[C@H](C)NC(=O)[C@@H]1CSSC[C@H](NC(=O)[C@@H](N)CCCCNC(=O)COCCOCCNC(=O)CC[C@H](NC(=O)CCCCCCCCCCCCCCCCCCC(=O)O)C(=O)O)C(=O)N[C@@H](CC(N)=O)C(=O)N[C@@H]([C@@H](C)O)C(=O)N[C@@H](C)C(=O)N[C@@H]([C@@H](C)O)C(=O)N1)[C@@H](C)O)C(=O)N1CCC[C@H]1C(=O)N[C@@H](CO)C(=O)N[C@@H](CO)C(=O)N[C@H](C(=O)N[C@@H](CC(N)=O)C(=O)N[C@H](C(=O)NCC(=O)N1CCC[C@H]1C(=O)N[C@@H](CC(N)=O)C(=O)N[C@H](C(=O)N[C@@H](Cc1ccc(O)cc1)C(N)=O)[C@@H](C)O)C(C)C)[C@@H](C)O
notes: synthetic analogue of human amylin; also called compound 68
B2: N^ε1-[2-[2-[2-[[(4S)-4-carboxy-4-(19-carboxynonadecanoylamino)butanoyl]amino]ethoxy]ethoxy]acetyl]-[Thr14,Arg17,Pro21,Pro27,Pro31]-h-amylin (peptide)
peptide: K([AEEA-γGlu-C20 diacid])CNTATCATQRLATFLRHSSPNFGAIPSSTPVGSNTY-NH2
modifications: disulfide 2-7; N-terminus assumed
SMILES: CC[C@H](C)[C@H](NC(=O)[C@H](C)NC(=O)CNC(=O)[C@H](Cc1ccccc1)NC(=O)[C@H](CC(N)=O)NC(=O)[C@@H]1CCCN1C(=O)[C@H](CO)NC(=O)[C@H](CO)NC(=O)[C@H](Cc1c[nH]cn1)NC(=O)[C@H](CCCNC(=N)N)NC(=O)[C@H](CC(C)C)NC(=O)[C@H](Cc1ccccc1)NC(=O)[C@@H](NC(=O)[C@H](C)NC(=O)[C@H](CC(C)C)NC(=O)[C@H](CCCNC(=N)N)NC(=O)[C@H](CCC(N)=O)NC(=O)[C@@H](NC(=O)[C@H](C)NC(=O)[C@@H]1CSSC[C@H](NC(=O)[C@@H](N)CCCCNC(=O)COCCOCCNC(=O)CC[C@H](NC(=O)CCCCCCCCCCCCCCCCCCC(=O)O)C(=O)O)C(=O)N[C@@H](CC(N)=O)C(=O)N[C@@H]([C@@H](C)O)C(=O)N[C@@H](C)C(=O)N[C@@H]([C@@H](C)O)C(=O)N1)[C@@H](C)O)[C@@H](C)O)C(=O)N1CCC[C@H]1C(=O)N[C@@H](CO)C(=O)N[C@@H](CO)C(=O)N[C@H](C(=O)N1CCC[C@H]1C(=O)N[C@H](C(=O)NCC(=O)N[C@@H](CO)C(=O)N[C@@H](CC(N)=O)C(=O)N[C@H](C(=O)N[C@@H](Cc1ccc(O)cc1)C(N)=O)[C@@H](C)O)C(C)C)[C@@H](C)O
notes: synthetic analogue of human amylin; also called compound 75
B3: N^ε1-[2-[2-[2-[[(4S)-4-carboxy-4-(19-carboxynonadecanoylamino)butanoyl]amino]ethoxy]ethoxy]acetyl]-[Ser14,Arg17,Pro21,Pro27,Pro31]-h-amylin (peptide)
peptide: K([AEEA-γGlu-C20 diacid])CNTATCATQRLASFLRHSSPNFGAIPSSTPVGSNTY-NH2
modifications: disulfide 2-7; N-terminus assumed
SMILES: CC[C@H](C)[C@H](NC(=O)[C@H](C)NC(=O)CNC(=O)[C@H](Cc1ccccc1)NC(=O)[C@H](CC(N)=O)NC(=O)[C@@H]1CCCN1C(=O)[C@H](CO)NC(=O)[C@H](CO)NC(=O)[C@H](Cc1c[nH]cn1)NC(=O)[C@H](CCCNC(=N)N)NC(=O)[C@H](CC(C)C)NC(=O)[C@H](Cc1ccccc1)NC(=O)[C@H](CO)NC(=O)[C@H](C)NC(=O)[C@H](CC(C)C)NC(=O)[C@H](CCCNC(=N)N)NC(=O)[C@H](CCC(N)=O)NC(=O)[C@@H](NC(=O)[C@H](C)NC(=O)[C@@H]1CSSC[C@H](NC(=O)[C@@H](N)CCCCNC(=O)COCCOCCNC(=O)CC[C@H](NC(=O)CCCCCCCCCCCCCCCCCCC(=O)O)C(=O)O)C(=O)N[C@@H](CC(N)=O)C(=O)N[C@@H]([C@@H](C)O)C(=O)N[C@@H](C)C(=O)N[C@@H]([C@@H](C)O)C(=O)N1)[C@@H](C)O)C(=O)N1CCC[C@H]1C(=O)N[C@@H](CO)C(=O)N[C@@H](CO)C(=O)N[C@H](C(=O)N1CCC[C@H]1C(=O)N[C@H](C(=O)NCC(=O)N[C@@H](CO)C(=O)N[C@@H](CC(N)=O)C(=O)N[C@H](C(=O)N[C@@H](Cc1ccc(O)cc1)C(N)=O)[C@@H](C)O)C(C)C)[C@@H](C)O
notes: synthetic analogue of human amylin; also called compound 73
B4: N^ε1-[2-[2-[2-[[(4S)-4-carboxy-4-(19-carboxynonadecanoylamino)butanoyl]amino]ethoxy]ethoxy]acetyl]-[Lys14,Arg17,Pro21,Pro27,Pro31]-h-amylin (peptide)
peptide: K([AEEA-γGlu-C20 diacid])CNTATCATQRLAKFLRHSSPNFGAIPSSTPVGSNTY-NH2
modifications: disulfide 2-7; N-terminus assumed
SMILES: CC[C@H](C)[C@H](NC(=O)[C@H](C)NC(=O)CNC(=O)[C@H](Cc1ccccc1)NC(=O)[C@H](CC(N)=O)NC(=O)[C@@H]1CCCN1C(=O)[C@H](CO)NC(=O)[C@H](CO)NC(=O)[C@H](Cc1c[nH]cn1)NC(=O)[C@H](CCCNC(=N)N)NC(=O)[C@H](CC(C)C)NC(=O)[C@H](Cc1ccccc1)NC(=O)[C@H](CCCCN)NC(=O)[C@H](C)NC(=O)[C@H](CC(C)C)NC(=O)[C@H](CCCNC(=N)N)NC(=O)[C@H](CCC(N)=O)NC(=O)[C@@H](NC(=O)[C@H](C)NC(=O)[C@@H]1CSSC[C@H](NC(=O)[C@@H](N)CCCCNC(=O)COCCOCCNC(=O)CC[C@H](NC(=O)CCCCCCCCCCCCCCCCCCC(=O)O)C(=O)O)C(=O)N[C@@H](CC(N)=O)C(=O)N[C@@H]([C@@H](C)O)C(=O)N[C@@H](C)C(=O)N[C@@H]([C@@H](C)O)C(=O)N1)[C@@H](C)O)C(=O)N1CCC[C@H]1C(=O)N[C@@H](CO)C(=O)N[C@@H](CO)C(=O)N[C@H](C(=O)N1CCC[C@H]1C(=O)N[C@H](C(=O)NCC(=O)N[C@@H](CO)C(=O)N[C@@H](CC(N)=O)C(=O)N[C@H](C(=O)N[C@@H](Cc1ccc(O)cc1)C(N)=O)[C@@H](C)O)C(C)C)[C@@H](C)O
notes: synthetic analogue of human amylin; also called compound 74
B5: N^ε1-[(4S)-4-carboxy-4-(19-carboxynonadecanoylamino)butanoyl]-[Arg14,Arg17,Pro21,Pro27,Pro31]-h-amylin (peptide)
peptide: K([γGlu-C20 diacid])CNTATCATQRLARFLRHSSPNFGAIPSSTPVGSNTY-NH2
modifications: disulfide 2-7; N-terminus assumed
SMILES: CC[C@H](C)[C@H](NC(=O)[C@H](C)NC(=O)CNC(=O)[C@H](Cc1ccccc1)NC(=O)[C@H](CC(N)=O)NC(=O)[C@@H]1CCCN1C(=O)[C@H](CO)NC(=O)[C@H](CO)NC(=O)[C@H](Cc1c[nH]cn1)NC(=O)[C@H](CCCNC(=N)N)NC(=O)[C@H](CC(C)C)NC(=O)[C@H](Cc1ccccc1)NC(=O)[C@H](CCCNC(=N)N)NC(=O)[C@H](C)NC(=O)[C@H](CC(C)C)NC(=O)[C@H](CCCNC(=N)N)NC(=O)[C@H](CCC(N)=O)NC(=O)[C@@H](NC(=O)[C@H](C)NC(=O)[C@@H]1CSSC[C@H](NC(=O)[C@@H](N)CCCCNC(=O)CC[C@H](NC(=O)CCCCCCCCCCCCCCCCCCC(=O)O)C(=O)O)C(=O)N[C@@H](CC(N)=O)C(=O)N[C@@H]([C@@H](C)O)C(=O)N[C@@H](C)C(=O)N[C@@H]([C@@H](C)O)C(=O)N1)[C@@H](C)O)C(=O)N1CCC[C@H]1C(=O)N[C@@H](CO)C(=O)N[C@@H](CO)C(=O)N[C@H](C(=O)N1CCC[C@H]1C(=O)N[C@H](C(=O)NCC(=O)N[C@@H](CO)C(=O)N[C@@H](CC(N)=O)C(=O)N[C@H](C(=O)N[C@@H](Cc1ccc(O)cc1)C(N)=O)[C@@H](C)O)C(C)C)[C@@H](C)O
notes: synthetic analogue of human amylin; also called compound 63

Experiments:
rat calcitonin receptor [1] = target: T1, rat calcitonin receptor (rat, UniProt P32214 25-516); experiment: SPA competition with 125I-calcitonin, membranes of BHK cells with rat calcitonin receptor (Assay VIII)
T1 construct: whole, on cells; also called rCTR; rat calcitonin (a) receptor
T1 sequence (looked up): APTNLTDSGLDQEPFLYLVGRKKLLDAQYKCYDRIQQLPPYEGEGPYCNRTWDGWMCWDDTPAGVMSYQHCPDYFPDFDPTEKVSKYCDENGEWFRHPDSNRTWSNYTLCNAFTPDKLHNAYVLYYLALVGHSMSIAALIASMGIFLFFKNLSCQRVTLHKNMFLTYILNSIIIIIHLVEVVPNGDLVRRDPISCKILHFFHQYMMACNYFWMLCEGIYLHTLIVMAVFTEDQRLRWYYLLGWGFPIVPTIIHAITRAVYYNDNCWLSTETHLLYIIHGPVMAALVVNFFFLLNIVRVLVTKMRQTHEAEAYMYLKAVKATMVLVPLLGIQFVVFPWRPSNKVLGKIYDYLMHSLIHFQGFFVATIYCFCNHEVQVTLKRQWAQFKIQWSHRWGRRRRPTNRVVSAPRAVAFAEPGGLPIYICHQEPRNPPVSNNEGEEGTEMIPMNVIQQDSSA

[2] = target: T2, rat amylin receptor (rat calcitonin receptor + rat RAMP 3) (rat, UniProt P32214 25-516; Q9JJ73 23-147); experiment: SPA competition with 125I-rat amylin, membranes of BHK cells with rat calcitonin receptor + rat RAMP3 (Assay VI)
T2 construct: whole, on cells; also called rAmylin-R; rat amylin 3(a) receptor
T2 sequence (looked up) 1: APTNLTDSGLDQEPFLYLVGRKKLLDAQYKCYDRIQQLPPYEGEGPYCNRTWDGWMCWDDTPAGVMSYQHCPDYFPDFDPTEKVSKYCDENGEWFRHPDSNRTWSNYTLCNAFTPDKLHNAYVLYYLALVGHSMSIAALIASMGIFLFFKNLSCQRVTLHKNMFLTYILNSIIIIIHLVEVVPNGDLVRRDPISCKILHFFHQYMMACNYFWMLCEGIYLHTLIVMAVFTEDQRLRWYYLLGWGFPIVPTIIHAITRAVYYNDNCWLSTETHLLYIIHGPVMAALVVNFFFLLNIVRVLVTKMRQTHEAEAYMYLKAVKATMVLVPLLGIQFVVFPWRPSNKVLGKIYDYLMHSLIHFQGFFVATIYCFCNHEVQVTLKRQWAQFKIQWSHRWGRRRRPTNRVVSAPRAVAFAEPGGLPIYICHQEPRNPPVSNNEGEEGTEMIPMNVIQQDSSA
T2 sequence (looked up) 2: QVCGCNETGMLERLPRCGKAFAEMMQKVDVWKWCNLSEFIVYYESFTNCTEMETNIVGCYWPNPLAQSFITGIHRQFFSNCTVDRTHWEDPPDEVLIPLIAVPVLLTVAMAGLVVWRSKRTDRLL

rat calcitonin receptor [3] = target: T1, rat calcitonin receptor; experiment: ratio of binding IC50s: rat calcitonin receptor over rat amylin receptor (reference)
[4] = target: T3, human calcitonin receptor (human, UniProt P30988 25-474); experiment: ratio of binding IC50s: human calcitonin receptor over human amylin receptor (reference)
T3 construct: whole, on cells; also called hCTR; hCT
T3 sequence (looked up): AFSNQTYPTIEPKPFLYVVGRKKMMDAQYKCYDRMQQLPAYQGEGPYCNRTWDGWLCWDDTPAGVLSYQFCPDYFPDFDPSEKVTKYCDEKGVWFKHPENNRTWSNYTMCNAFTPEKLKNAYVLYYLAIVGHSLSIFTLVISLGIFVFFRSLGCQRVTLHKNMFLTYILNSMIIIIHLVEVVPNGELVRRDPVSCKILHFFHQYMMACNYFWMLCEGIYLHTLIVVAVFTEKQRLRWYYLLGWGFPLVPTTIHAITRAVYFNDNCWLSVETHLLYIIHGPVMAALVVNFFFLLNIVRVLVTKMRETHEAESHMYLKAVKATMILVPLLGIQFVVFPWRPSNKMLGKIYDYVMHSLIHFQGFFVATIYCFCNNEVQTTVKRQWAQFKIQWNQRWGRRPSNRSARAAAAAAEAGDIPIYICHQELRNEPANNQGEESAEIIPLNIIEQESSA
Method in brief: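 IC₅₀ values were derived by one-site competition analysis of SPA counts. Cell membranes (35 ng/μL) with SPA beads were incubated with test compounds for 120 min at 25° C in Hepes buffer, pH 7.4, containing CaCl2, MgCl₂, OA and Tween20.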

Binder	IC50 (rat calcitonin receptor [1])	IC50 [2]	Ratio rCT/rAmylin binding (rat calcitonin receptor [3])	Ratio hCT/hAmylin binding [4]
B1	28.5 nM	0.234 nM	122	64.4
B2	442 nM	4.03 nM	110	91.4
B3	50.3 nM	0.283 nM	178	51.7
B4	109 nM	4.89 nM	22.3	101
B5	124 nM	3.48 nM	35.6	157
